Source: PMC10786891, “Massively parallel profiling of RNA-targeting CRISPR-Cas13d”

T1: EsCas13d, nuclease-dead (Eubacterium siraeum, UniProt B0MS50, R295A;H300A;R849A;H854A)
T1 sequence: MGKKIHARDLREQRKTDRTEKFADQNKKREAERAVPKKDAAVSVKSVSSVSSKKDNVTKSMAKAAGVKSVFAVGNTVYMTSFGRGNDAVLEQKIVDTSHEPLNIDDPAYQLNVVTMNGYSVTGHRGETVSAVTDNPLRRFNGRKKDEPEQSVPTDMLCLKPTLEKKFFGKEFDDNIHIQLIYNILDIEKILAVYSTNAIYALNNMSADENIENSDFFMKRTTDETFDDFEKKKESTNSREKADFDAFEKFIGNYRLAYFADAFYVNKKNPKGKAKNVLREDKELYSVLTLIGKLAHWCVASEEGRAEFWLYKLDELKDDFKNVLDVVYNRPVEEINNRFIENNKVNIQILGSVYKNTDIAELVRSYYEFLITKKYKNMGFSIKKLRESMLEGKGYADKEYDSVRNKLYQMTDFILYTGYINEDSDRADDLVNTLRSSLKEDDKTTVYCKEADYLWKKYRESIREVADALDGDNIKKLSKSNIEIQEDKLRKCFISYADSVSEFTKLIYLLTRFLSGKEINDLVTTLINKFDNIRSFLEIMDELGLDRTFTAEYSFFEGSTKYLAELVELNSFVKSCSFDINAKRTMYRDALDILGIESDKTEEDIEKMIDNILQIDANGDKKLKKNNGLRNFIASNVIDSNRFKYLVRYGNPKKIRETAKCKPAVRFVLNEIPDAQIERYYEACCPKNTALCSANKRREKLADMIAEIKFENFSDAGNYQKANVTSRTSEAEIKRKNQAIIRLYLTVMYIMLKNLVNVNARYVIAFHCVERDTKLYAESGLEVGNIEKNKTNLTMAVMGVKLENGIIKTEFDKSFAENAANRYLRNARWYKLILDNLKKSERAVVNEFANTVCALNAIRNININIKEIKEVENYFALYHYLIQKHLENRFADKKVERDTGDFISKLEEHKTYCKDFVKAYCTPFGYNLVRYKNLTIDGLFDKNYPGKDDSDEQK

B1: target 1 insU 3' of 9,insG 3' of 6 (mixed)
RNA 1: CACCCGUGCAAAAAUGCAGGGGUCUAAAACUGAGCGGAUAACCUCUCUAUGG
RNA 2: GGGAAUGGAUCCACAUCUACGAAUUCGUACCAUAGAGAGGUUAUUCCGGCUCACCGAGAUCGGAAGAGCACACGU
B2: target 1 insA 3' of 10,insG 3' of 6 (mixed)
RNA 1: CACCCGUGCAAAAAUGCAGGGGUCUAAAACUGAGCGGAUAACCUCUCUAUGG
RNA 2: GGGAAUGGAUCCACAUCUACGAAUUCGUACCAUAGAGAGGUUAAUCCGGCUCACCGAGAUCGGAAGAGCACACGU
B3: target 2 MT 5'PFS GUG 3'PFS AUC (mixed)
RNA 1: CACCCGUGCAAAAUUGCAGGGGUCUAAAACCUUCUCCAAAUUGUUUCAUCCU
RNA 2: GGGAAUGGAUCCACAUCUACGAAUUCGUGAGGAUGAAACAAUUUGGAGAAGAUCAGAUCGGAAGAGCACACGU
B4: target 2 MT 5'PFS UUU 3'PFS CUC (mixed)
RNA 1: CACCCGUGCAAAAUUGCAGGGGUCUAAAACCUUCUCCAAAUUGUUUCAUCCU
RNA 2: GGGAAUGGAUCCACAUCUACGAAUUCUUUAGGAUGAAACAAUUUGGAGAAGCUCAGAUCGGAAGAGCACACGU
B5: target 2 MT 5'PFS AUA 3'PFS CCG (mixed)
RNA 1: CACCCGUGCAAAAUUGCAGGGGUCUAAAACCUUCUCCAAAUUGUUUCAUCCU
RNA 2: GGGAAUGGAUCCACAUCUACGAAUUCAUAAGGAUGAAACAAUUUGGAGAAGCCGAGAUCGGAAGAGCACACGU
B6: target 2 MT 5'PFS GAC 3'PFS UCC (mixed)
RNA 1: CACCCGUGCAAAAUUGCAGGGGUCUAAAACCUUCUCCAAAUUGUUUCAUCCU
RNA 2: GGGAAUGGAUCCACAUCUACGAAUUCGACAGGAUGAAACAAUUUGGAGAAGUCCAGAUCGGAAGAGCACACGU
B7: target 2 MT 5'PFS GCU 3'PFS UGC (mixed)
RNA 1: CACCCGUGCAAAAUUGCAGGGGUCUAAAACCUUCUCCAAAUUGUUUCAUCCU
RNA 2: GGGAAUGGAUCCACAUCUACGAAUUCGCUAGGAUGAAACAAUUUGGAGAAGUGCAGAUCGGAAGAGCACACGU
B8: target 2 MT 5'PFS CGC 3'PFS AGG (mixed)
RNA 1: CACCCGUGCAAAAUUGCAGGGGUCUAAAACCUUCUCCAAAUUGUUUCAUCCU
RNA 2: GGGAAUGGAUCCACAUCUACGAAUUCCGCAGGAUGAAACAAUUUGGAGAAGAGGAGAUCGGAAGAGCACACGU
B9: target 2 MT 5'PFS GAG 3'PFS CUU (mixed)
RNA 1: CACCCGUGCAAAAUUGCAGGGGUCUAAAACCUUCUCCAAAUUGUUUCAUCCU
RNA 2: GGGAAUGGAUCCACAUCUACGAAUUCGAGAGGAUGAAACAAUUUGGAGAAGCUUAGAUCGGAAGAGCACACGU
B10: target 2 MT 5'PFS UAA 3'PFS AAC (mixed)
RNA 1: CACCCGUGCAAAAUUGCAGGGGUCUAAAACCUUCUCCAAAUUGUUUCAUCCU
RNA 2: GGGAAUGGAUCCACAUCUACGAAUUCUAAAGGAUGAAACAAUUUGGAGAAGAACAGAUCGGAAGAGCACACGU
B11: target 2 MT 5'PFS UAA 3'PFS AAG (mixed)
RNA 1: CACCCGUGCAAAAUUGCAGGGGUCUAAAACCUUCUCCAAAUUGUUUCAUCCU
RNA 2: GGGAAUGGAUCCACAUCUACGAAUUCUAAAGGAUGAAACAAUUUGGAGAAGAAGAGAUCGGAAGAGCACACGU
B12: target 2 MT 5'PFS GAU 3'PFS UAA (mixed)
RNA 1: CACCCGUGCAAAAUUGCAGGGGUCUAAAACCUUCUCCAAAUUGUUUCAUCCU
RNA 2: GGGAAUGGAUCCACAUCUACGAAUUCGAUAGGAUGAAACAAUUUGGAGAAGUAAAGAUCGGAAGAGCACACGU
B13: target 2 MT 5'PFS GAU 3'PFS UAC (mixed)
RNA 1: CACCCGUGCAAAAUUGCAGGGGUCUAAAACCUUCUCCAAAUUGUUUCAUCCU
RNA 2: GGGAAUGGAUCCACAUCUACGAAUUCGAUAGGAUGAAACAAUUUGGAGAAGUACAGAUCGGAAGAGCACACGU
B14: target 2 MT 5'PFS AUA 3'PFS CCA (mixed)
RNA 1: CACCCGUGCAAAAUUGCAGGGGUCUAAAACCUUCUCCAAAUUGUUUCAUCCU
RNA 2: GGGAAUGGAUCCACAUCUACGAAUUCAUAAGGAUGAAACAAUUUGGAGAAGCCAAGAUCGGAAGAGCACACGU
B15: target 2 MT 5'PFS GAU 3'PFS UAU (mixed)
RNA 1: CACCCGUGCAAAAUUGCAGGGGUCUAAAACCUUCUCCAAAUUGUUUCAUCCU
RNA 2: GGGAAUGGAUCCACAUCUACGAAUUCGAUAGGAUGAAACAAUUUGGAGAAGUAUAGAUCGGAAGAGCACACGU
B16: target 2 MT 5'PFS CUG 3'PFS AGA (mixed)
RNA 1: CACCCGUGCAAAAUUGCAGGGGUCUAAAACCUUCUCCAAAUUGUUUCAUCCU
RNA 2: GGGAAUGGAUCCACAUCUACGAAUUCCUGAGGAUGAAACAAUUUGGAGAAGAGAAGAUCGGAAGAGCACACGU
B17: target 2 MT 5'PFS GCC 3'PFS AAG (mixed)
RNA 1: CACCCGUGCAAAAUUGCAGGGGUCUAAAACCUUCUCCAAAUUGUUUCAUCCU
RNA 2: GGGAAUGGAUCCACAUCUACGAAUUCGCCAGGAUGAAACAAUUUGGAGAAGAAGAGAUCGGAAGAGCACACGU
B18: target 2 MT 5'PFS GCC 3'PFS AAC (mixed)
RNA 1: CACCCGUGCAAAAUUGCAGGGGUCUAAAACCUUCUCCAAAUUGUUUCAUCCU
RNA 2: GGGAAUGGAUCCACAUCUACGAAUUCGCCAGGAUGAAACAAUUUGGAGAAGAACAGAUCGGAAGAGCACACGU
B19: target 2 MT 5'PFS UAA 3'PFS AAA (mixed)
RNA 1: CACCCGUGCAAAAUUGCAGGGGUCUAAAACCUUCUCCAAAUUGUUUCAUCCU
RNA 2: GGGAAUGGAUCCACAUCUACGAAUUCUAAAGGAUGAAACAAUUUGGAGAAGAAAAGAUCGGAAGAGCACACGU
B20: target 2 MT 5'PFS CGC 3'PFS AGC (mixed)
RNA 1: CACCCGUGCAAAAUUGCAGGGGUCUAAAACCUUCUCCAAAUUGUUUCAUCCU
RNA 2: GGGAAUGGAUCCACAUCUACGAAUUCCGCAGGAUGAAACAAUUUGGAGAAGAGCAGAUCGGAAGAGCACACGU
B21: target 2 MT 5'PFS GCC 3'PFS AAA (mixed)
RNA 1: CACCCGUGCAAAAUUGCAGGGGUCUAAAACCUUCUCCAAAUUGUUUCAUCCU
RNA 2: GGGAAUGGAUCCACAUCUACGAAUUCGCCAGGAUGAAACAAUUUGGAGAAGAAAAGAUCGGAAGAGCACACGU
B22: target 2 MT 5'PFS UAA 3'PFS AAU (mixed)
RNA 1: CACCCGUGCAAAAUUGCAGGGGUCUAAAACCUUCUCCAAAUUGUUUCAUCCU
RNA 2: GGGAAUGGAUCCACAUCUACGAAUUCUAAAGGAUGAAACAAUUUGGAGAAGAAUAGAUCGGAAGAGCACACGU
B23: target 2 MT 5'PFS GUG 3'PFS AUG (mixed)
RNA 1: CACCCGUGCAAAAUUGCAGGGGUCUAAAACCUUCUCCAAAUUGUUUCAUCCU
RNA 2: GGGAAUGGAUCCACAUCUACGAAUUCGUGAGGAUGAAACAAUUUGGAGAAGAUGAGAUCGGAAGAGCACACGU
B24: target 2 MT 5'PFS CCU 3'PFS CCC (mixed)
RNA 1: CACCCGUGCAAAAUUGCAGGGGUCUAAAACCUUCUCCAAAUUGUUUCAUCCU
RNA 2: GGGAAUGGAUCCACAUCUACGAAUUCCCUAGGAUGAAACAAUUUGGAGAAGCCCAGAUCGGAAGAGCACACGU
B25: target 2 MT 5'PFS GAU 3'PFS UAG (mixed)
RNA 1: CACCCGUGCAAAAUUGCAGGGGUCUAAAACCUUCUCCAAAUUGUUUCAUCCU
RNA 2: GGGAAUGGAUCCACAUCUACGAAUUCGAUAGGAUGAAACAAUUUGGAGAAGUAGAGAUCGGAAGAGCACACGU
B26: target 2 MT 5'PFS UUU 3'PFS CUA (mixed)
RNA 1: CACCCGUGCAAAAUUGCAGGGGUCUAAAACCUUCUCCAAAUUGUUUCAUCCU
RNA 2: GGGAAUGGAUCCACAUCUACGAAUUCUUUAGGAUGAAACAAUUUGGAGAAGCUAAGAUCGGAAGAGCACACGU
B27: target 2 MT 5'PFS CGA 3'PFS ACU (mixed)
RNA 1: CACCCGUGCAAAAUUGCAGGGGUCUAAAACCUUCUCCAAAUUGUUUCAUCCU
RNA 2: GGGAAUGGAUCCACAUCUACGAAUUCCGAAGGAUGAAACAAUUUGGAGAAGACUAGAUCGGAAGAGCACACGU
B28: target 2 MT 5'PFS CUG 3'PFS AGC (mixed)
RNA 1: CACCCGUGCAAAAUUGCAGGGGUCUAAAACCUUCUCCAAAUUGUUUCAUCCU
RNA 2: GGGAAUGGAUCCACAUCUACGAAUUCCUGAGGAUGAAACAAUUUGGAGAAGAGCAGAUCGGAAGAGCACACGU

Target: T1, EsCas13d, nuclease-dead
Experiment: crRNA (strand 1, pre-loaded); Mg2+; 40 mM Tris-HCl pH 7.5, 150 mM NaCl, 6 mM MgCl2, 1 mM DTT, 0.1% Tween-20, 0.2 mg/ml BSA; 25 C; 10 min per concentration, then washed
Settings: tags: His6-TwinStrep-SUMO cleaved; N-terminal SNAP kept (SNAP-Surface 488); label: 3' end held by stalled T7 RNA polymerase

B1 and B2 are within 1.5-fold of each other in Kd: 12.1 ± 1.4 nM for the first, 9.9 ± 0.4 nM for the second.

B3 and B4 are within 1.5-fold of each other in Kd: 10.8 ± 0.8 nM for the first, 8.4 ± 0.9 nM for the second.

First: B5
Second: B6
The Kd of the first is 5.9-fold lower: 8.5 ± 0.8 nM for the first, 50 ± 15 nM for the second. The first binds more tightly here.

Compared with B7, B8 is 3.8-fold lower in Kd: 12.9 ± 2.1 nM for the first, 3.4 ± 0.5 nM for the second.

B9 and B10 are within 1.5-fold of each other in Kd: 8.9 ± 0.7 nM for the first, 6.6 ± 1 nM for the second.

First: B11
Second: B12
The Kd of the first is 2.7-fold lower: 4.5 ± 0.6 nM for the first, 12 ± 4 nM for the second. The first binds more tightly here.

B13 and B14 are within error of each other in Kd: 16 ± 3.4 nM for the first, 15.9 ± 2.5 nM for the second.

Going from B15 to B16, the Kd falls from 16 ± 4 nM to 2.16 ± 0.2 nM (7.4-fold).

B17 and B18 are within error of each other in Kd: 22 ± 5 nM for the first, 17 ± 5 nM for the second.

Going from B19 to B20, the Kd rises from 2.9 ± 0.8 nM to 6.1 ± 1.5 nM (2.1-fold).

First: B21
Second: B22
The Kd of the first is 2.5-fold higher: 11.9 ± 3.4 nM for the first, 4.7 ± 0.6 nM for the second. The second binds more tightly here.

Going from B23 to B24, the Kd falls from 13.8 ± 1.3 nM to 5.3 ± 2 nM (2.6-fold). The second binds more tightly here.

B25 and B26 are within error of each other in Kd: 13.4 ± 2.7 nM for the first, 16 ± 3.2 nM for the second.

First: B27
Second: B28
The Kd of the first is 6.7-fold higher: 17 ± 7 nM for the first, 2.52 ± 0.2 nM for the second.
